Laboratory results: PMC11565788 (bioRxiv, 2024)

B1: AAGAB psGD (residues 2-177), tagless, coexpressed and co-purified with AP1σ3-His6 (domain or fragment, human, UniProt Q6PD74 2-177, looked up)
chain: AAGVPCALVTSCSSVFSGDQLVQHILGTEDLIVEVTSNDAVRFYPWTIDNKYYSADINLCVVPNKFLVTAEIAESVQAFVVYFDSTQKSGLDSVSSWLPLAKAWLPEVMILVCDRVSEDGINRQKAQEWCIKHGFELVELSPEELPEEDDDFPESTGVKRIVQALNANVWSNVVMK
B2: AP1σ3-His6 (full-length human AP1S3 with C-terminal His6 tag) (natural protein, UniProt Q96PC3-1 1-154, looked up)
chain: MIHFILLFSRQGKLRLQKWYITLPDKERKKITREIVQIILSRGHRTSSFVDWKELKLVYKRYASLYFCCAIENQDNELLTLEIVHRYVELLDKYFGNVCELDIIFNFEKAYFILDEFIIGGEIQETSKKIAVKAIEDSDMLQEVSTVSQTMGER

Legend:
[1] = molecular target: B2; test: SEC
[2] = molecular target: B1; test: crystal structure

Row | Binder | stoichiometry N [1] | binding result [2]
1 | B1 | 1 | –
2 | B2 | – | binds
